# According to patent publication US20230057263A1:
# Target: human CD3 epsilon (CD3ε) (human) (UniProt P07766)
# Test: flow cytometry on human T cells
substance,measurement,value
OKT3 (antibody),EC50 (read off the curve),0.03 nM
